Measured values taken from patent publication US20230295310A1 (ABCELLERA BIOLOGICS, published 2023).
Changes are numbered by the printed parent chain. One block for each binder: values may come before it.

How the values were obtained:
[1] = molecular target: T1, human CD3 expressed on cells (Jurkat cells; human primary T cells) (human, UniProt P07766 23-207; P04234 22-171; P09693 23-182); assay: flow cytometry, Jurkat cells
T1 construct: whole, on cells
Procedure: (§1) Purified antibodies were confirmed to bind CD3 expressed on cells using the CytoFLEX S or LX flow cytometers (Beckman Coulter). Antibodies were diluted to 25 nM in FACS buffer (PBS+2% FBS) and were incubated with CD3-expressing cells for 30 minutes at 4° C. […] The median fluorescence intensity of the binding signal for each antibody was normalized to the isotype control to obtain a fold over isotype value. An antibody with a fold over isotype (FOI) of ≥10 was considered to be positive for binding.

[2] = molecular target: T2, cynomolgus monkey CD3 expressed on cyno primary T cells (cynomolgus monkey, UniProt Q95LI5 22-198; Q95LI8 22-171; Q95LI7 23-181); assay: flow cytometry, cyno primary T cells
T2 construct: whole, on cells; CD3 complex on purified cynomolgus monkey CD3 pan T cells; also called cyno CD3
T2 sequence (Q95LI5 22-198, chain 1 of 3): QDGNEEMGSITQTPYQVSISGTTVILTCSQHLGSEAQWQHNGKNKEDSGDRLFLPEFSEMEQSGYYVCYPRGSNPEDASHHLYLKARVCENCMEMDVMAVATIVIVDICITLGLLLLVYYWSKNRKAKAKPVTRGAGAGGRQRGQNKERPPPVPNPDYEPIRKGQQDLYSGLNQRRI
T2 sequence (Q95LI8 22-171, chain 2 of 3): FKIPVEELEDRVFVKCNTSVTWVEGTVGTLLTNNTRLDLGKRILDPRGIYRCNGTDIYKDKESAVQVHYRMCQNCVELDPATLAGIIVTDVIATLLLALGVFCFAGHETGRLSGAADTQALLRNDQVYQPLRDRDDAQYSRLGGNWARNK
T2 sequence (Q95LI7 23-181, chain 3 of 3): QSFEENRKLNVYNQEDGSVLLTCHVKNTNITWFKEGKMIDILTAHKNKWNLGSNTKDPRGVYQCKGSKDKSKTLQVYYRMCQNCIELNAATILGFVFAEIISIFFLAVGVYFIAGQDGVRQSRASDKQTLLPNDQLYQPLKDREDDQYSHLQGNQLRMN
In short: (§2)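 Cells expressing CD3 were exposed to each antibody diluted to 25 nM for 30 minutes at 4° C, then analysed by flow cytometry. The median fluorescence signal was expressed relative to an isotype control, and a value of at least 10 indicated binding.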

cynomolgus monkey CD3 = molecular target: T3, cynomolgus monkey CD3 (cynomolgus monkey, UniProt Q95LI5 22-198; Q95LI8 22-171; Q95LI7 23-181); assay: flow cytometry, cyno primary T cells
T3 construct: whole, on cells; CD3 on purified cynomolgus monkey CD3 pan T cells; also called cyno CD3; CD3 on cyno primary T cells
T3 sequence (Q95LI5 22-198, chain 1 of 3): as the sequence (Q95LI5 22-198, chain 1 of 3) above
T3 sequence (Q95LI8 22-171, chain 2 of 3): as the sequence (Q95LI8 22-171, chain 2 of 3) above
T3 sequence (Q95LI7 23-181, chain 3 of 3): as the sequence (Q95LI7 23-181, chain 3 of 3) above
In short: as §2

human CD3 [3] = molecular target: T4, human CD3 (human, UniProt P07766 23-207; P04234 22-171; P09693 23-182); assay: flow cytometry, Jurkat cells, 25 nM antibody
T4 construct: whole, on cells; also called CD3 on Jurkat cells; CD3 on human primary T cells
T4 sequence (P07766 23-207, chain 1 of 3): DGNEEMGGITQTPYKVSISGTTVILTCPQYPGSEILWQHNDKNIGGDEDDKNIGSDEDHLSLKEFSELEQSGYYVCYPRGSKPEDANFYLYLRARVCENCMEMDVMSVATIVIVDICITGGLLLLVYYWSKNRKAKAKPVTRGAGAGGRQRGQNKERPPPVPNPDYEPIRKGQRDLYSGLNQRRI
T4 sequence (P04234 22-171, chain 2 of 3): as the sequence (Q95LI8 22-171, chain 2 of 3) above, with V5I, K15N, V20I, T32S, N33D, N34I, A64T, N74S, L83V, R141H counted along it
T4 sequence (P09693 23-182, chain 3 of 3): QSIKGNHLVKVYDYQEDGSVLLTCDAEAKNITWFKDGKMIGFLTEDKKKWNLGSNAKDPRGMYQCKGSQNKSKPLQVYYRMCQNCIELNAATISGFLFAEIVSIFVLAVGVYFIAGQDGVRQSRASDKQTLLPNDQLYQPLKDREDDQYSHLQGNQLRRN
Procedure: as §1

human CD3 [4] = molecular target: T4, human CD3; assay: flow cytometry, human primary T cells, 25 nM antibody
Procedure: as §1

human CD3 [5] = molecular target: T4, human CD3; assay: flow cytometry, Jurkat cells
Procedure: as §1

T1 sequence (P07766 23-207, chain 1 of 3): as the sequence (P07766 23-207, chain 1 of 3) above
T1 sequence (P04234 22-171, chain 2 of 3): as the sequence (Q95LI8 22-171, chain 2 of 3) above, with V5I, K15N, V20I, T32S, N33D, N34I, A64T, N74S, L83V, R141H counted along it
T1 sequence (P09693 23-182, chain 3 of 3): as the sequence (P09693 23-182, chain 3 of 3) above

B1: mAb 279 (antibody, V domains shown)
VH: QVQLVQSGAEVKKPGASVKVSCKASGYTFTGYYMHWVRQAPGQGLEWMGWIYPNSGRTNYAQKFQGRVTMTRDTSISTAYMELTRLISDDTAVYYCARLWDLYFDYWGQGTLVTVSS
VL: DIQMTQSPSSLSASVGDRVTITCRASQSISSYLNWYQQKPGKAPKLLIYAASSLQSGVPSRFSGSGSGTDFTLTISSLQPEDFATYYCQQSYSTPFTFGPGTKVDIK
notes: VH/VL only
binding result [1]: no binding (tested: FOI <10 (FOI >=10 = positive); 25 nM)
binding result [2]: no binding (tested: FOI <10 (FOI >=10 = positive); 25 nM)

B2: mAb 280 (antibody, V domains shown)
VH: B1 VH with K19R
VL: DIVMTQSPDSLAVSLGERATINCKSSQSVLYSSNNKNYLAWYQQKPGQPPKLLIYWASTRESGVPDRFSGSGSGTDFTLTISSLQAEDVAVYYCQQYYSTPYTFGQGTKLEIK
notes: VH/VL only
binding result [1]: no binding (tested: FOI <10 (FOI >=10 = positive); 25 nM)
binding result [2]: no binding (tested: FOI <10 (FOI >=10 = positive); 25 nM)

B3: mAb 281 (antibody, V domains shown)
VH: B1 VH with K19R
VL: DIVMTQSPLSLPVTPGEPASISCRSSQSLLHYNGNNYLDWYLQKPGQSPHLLIYLGSNRASGVPDRFSGSGSGTDFTLKIIRVEAEDVGIYYCMQGLQSPYTFGQGTKLEIK
notes: VH/VL only
binding result [1]: no binding (tested: FOI <10 (FOI >=10 = positive); 25 nM)
binding result [2]: no binding (tested: FOI <10 (FOI >=10 = positive); 25 nM)

B6: mAb 311 (antibody, V domains shown)
VH: EVQLLESGGGLVQPGGSRRLSCAASGFTFSSYAMSWVRQAPGKGLEWVSVINTRGDITSYADSVKGRFTISRDNSKNTLYLQMNSLRAEDTAVYYCAKKYSYYYYYMDVWGKGTTVTVSS
VL: SYELTQPLSVSVALGQTARITCGGNNIGSKNVHWHQQKPGQAPVLVIYRESNRPSGIPERFSGSNSGNTATLTSSRAQAGDEADYYCQVWDSSTAVFGGGTQLTAL
notes: VH and VL only
binding result (human CD3 [5]): no binding (tested: FOI ≥10 = positive; 25 nM)
binding result (cynomolgus monkey CD3): no binding (tested: FOI ≥10 = positive; 25 nM)

B7: mAb 312 (antibody, V domains shown)
VH: EGQLLESGGGLVQPGGSLRLSCAASGFTFSRYAMSWIRQAPGKGLEWVSVINGSGGDKNYADSVKGRFTISRDNSKNSLYLLMNGLRVEDTAIYFCAKKFSYYYYYMDVWGKGTSVTVSS
VL: B6 VL with E59G
notes: VH and VL only
binding result (human CD3 [5]): no binding (tested: FOI ≥10 = positive; 25 nM)
binding result (cynomolgus monkey CD3): no binding (tested: FOI ≥10 = positive; 25 nM)

B9: mAb 289 (antibody, V domains shown)
VH: B6 VH with Y32F, N52S, T53S, I57N, S59N
VL: B6 VL
notes: VH/VL only
binding result [1]: no binding (tested: FOI <10 (FOI >=10 = positive); 25 nM)
binding result [2]: no binding (tested: FOI <10 (FOI >=10 = positive); 25 nM)

B13: mAb 294 (antibody, V domains shown)
VH: EVQLLESGGGLVQPGGSLRLSCAASGFTFSSSVMSWVRQGPGKGLEWVSAIRGSGVYTYYADSVKGRFTISRDNSKNTLYLQMNSLRAEDTAVYYCAKKYSYYYYYMDVWGKGTTVTVSS
VL: B6 VL with S1P, N31D, H35Y, E50D, S74I
notes: VH and VL only
binding result (human CD3 [5]): no binding (tested: FOI ≥10 = positive; 25 nM)
binding result (cynomolgus monkey CD3): no binding (tested: FOI ≥10 = positive; 25 nM)

B17: mAb 282 (antibody, V domains shown)
VH: QVQLVQSETEVKKPGASVRVSCKASGYTFTGYYVHWVRQAPGQGLEWMGWINPKSGRTSYSQKFQDRVTMTRDTSISTVYMELSRLRSDDTAVYYCARILELIFDYWGQGTLVTVSS
VL: EIVLTQSPDFQSVTPKEKVTITCRASQSIGSSLHWYQQKPDQSPKLLIKYASQSFSGVPSRFSGSGSGTDFTLTINSLEAEDAATYYCHQSSSLPTFGPGTKVDIK
notes: VH/VL only
binding result [1]: no binding (tested: FOI <10 (FOI >=10 = positive); 25 nM)
binding result [2]: no binding (tested: FOI <10 (FOI >=10 = positive); 25 nM)

B18: mAb 310 (antibody, V domains shown)
VH: QVQLVESGGGVVQPGRSLRLSCAASGFTFRSYGMHWVRQAPGKGLEWVTIIWYDGSKKYYADSVRGRFTISRDNSKNMLYLQMNSLRAEDTAVYYCASQEFNWNDGGFYYMDVWGKGTTVTVSS
VL: DIQLTQSPSFLSASVGDRVTITCRASQDISSYLHWCQQKPGKAPKLLIYGASTLQSGVPSRFSGSGSGKEFTLTISSLQPEDFATYYCQQLDNYPPTFGGGTKVEIK
notes: VH and VL only
binding result (human CD3 [5]): no binding (tested: FOI ≥10 = positive; 25 nM)
binding result (cynomolgus monkey CD3): no binding (tested: FOI ≥10 = positive; 25 nM)

Continued, in another order:

Jurkat Cell Binding (FOI) (human CD3 [3]): 227 FOI
Human primary T Cell Binding (FOI) (human CD3 [4]): 255 FOI
B4: mAb 292 (antibody, V domains shown)
VH: B6 VH with S31T, T53G, I57D, S59N, T78I, Y80F
VL: B6 VL with N31D, H35Y, E50D, S74I, S93R
notes: VH and VL only
binding result (cynomolgus monkey CD3): no binding (tested: FOI ≥10 = positive; 25 nM)

Jurkat Cell Binding (FOI) (human CD3 [3]): 216 FOI
Human primary T Cell Binding (FOI) (human CD3 [4]): 219 FOI
B5: mAb 306 (antibody, V domains shown)
VH: EVQLLESGGGLVQPGGSLRLSCAASGFTFNSYAMSWVRQAPGRGLEWVSAISGRKSTTYYADSVKGRFTISRDNSKNTLYLQMNSLRAEDTAVYYCAKLWNYYYYYMDVWGKGTTVTVSS
VL: B6 VL with N31D, H35Y, E50D, S74I
notes: VH and VL only
binding result (cynomolgus monkey CD3): no binding (tested: FOI ≥10 = positive; 25 nM)

Jurkat Cell Binding (FOI) (human CD3 [3]): 211 FOI
Human primary T Cell Binding (FOI) (human CD3 [4]): 211 FOI
B8: mAb 318 (antibody, V domains shown)
VH: B7 VH with N52D
VL: B6 VL with S29G, N31D, H35Y, E50D, S74I, S93R
notes: VH and VL only
binding result (cynomolgus monkey CD3): no binding (tested: FOI ≥10 = positive; 25 nM)

Jurkat Cell Binding (FOI) (human CD3 [3]): 253 FOI
Human primary T Cell Binding (FOI) (human CD3 [4]): 283 FOI
B10: mAb 301 (antibody, V domains shown)
VH: B6 VH with N52S, T53G, I57N, S59N, D73E, T78M
VL: B6 VL with N31D, H35Y, E50D, S74I, S93R
notes: VH and VL only
binding result (cynomolgus monkey CD3): no binding (tested: FOI ≥10 = positive; 25 nM)

Jurkat Cell Binding (FOI) (human CD3 [3]): 253 FOI
Human primary T Cell Binding (FOI) (human CD3 [4]): 241 FOI
B11: mAb 316 (antibody, V domains shown)
VH: B6 VH with S30R, S31T, T53G, I57D, S59N, T78I, Y80F
VL: B6 VL with N31D, H35Y, E50D, S74I, S93R
notes: VH and VL only
binding result (cynomolgus monkey CD3): no binding (tested: FOI ≥10 = positive; 25 nM)

Jurkat Cell Binding (FOI) (human CD3 [3]): 167 FOI
Human primary T Cell Binding (FOI) (human CD3 [4]): 183 FOI
B12: mAb 296 (antibody, V domains shown)
VH: B13 VH with S32Y, V33A, G40A, R52S, V56G, Y57T, A61T
VL: B6 VL with H35Y, E50D, S74I
notes: VH and VL only
binding result (cynomolgus monkey CD3): no binding (tested: FOI ≥10 = positive; 25 nM)

Jurkat Cell Binding (FOI) (human CD3 [3]): 220 FOI
Human primary T Cell Binding (FOI) (human CD3 [4]): 211 FOI
B14: mAb 297 (antibody, V domains shown)
VH: EVQLLESGGGLVQPGGSLRLSCAASGFTFSSYAMNWVRQAPGKGLEWVSIISGGRRDDITYYAASVKGRFTISRDNSKNTLYLQMNSLRAEDTAVYYCAKMYNYYYYYIDVWGKGTTVTVSS
VL: B6 VL with R19K, N31D, H35Y, E50D, S74I, S93N
notes: VH and VL only
binding result (cynomolgus monkey CD3): no binding (tested: FOI ≥10 = positive; 25 nM)

Jurkat Cell Binding (FOI) (human CD3 [3]): 247 FOI
Human primary T Cell Binding (FOI) (human CD3 [4]): 256 FOI
B15: mAb 303 (antibody, V domains shown)
VH: B14 VH with Q3H, V48I, D57S, D58G, Y82D
VL: B6 VL with N31D, H35Y, E50D, S74I, S93N
notes: VH and VL only
binding result (cynomolgus monkey CD3): no binding (tested: FOI ≥10 = positive; 25 nM)

Jurkat Cell Binding (FOI) (human CD3 [3]): 234 FOI
Human primary T Cell Binding (FOI) (human CD3 [4]): 226 FOI
B16: mAb 304 (antibody, V domains shown)
VH: B6 VH with N52S, T53G, I57N, S59N, D73E, T78I
VL: B6 VL with N31D, H35Y, E50D, S74I, S93R
notes: VH and VL only
binding result (cynomolgus monkey CD3): no binding (tested: FOI ≥10 = positive; 25 nM)

Jurkat Cell Binding (FOI) (human CD3 [3]): 68 FOI
Human primary T Cell Binding (FOI) (human CD3 [4]): 26.7 FOI
B19: mAb 300 (antibody, V domains shown)
VH: EVQLLESGGGLVQPGGSLRLSCAASGFTFSRYAMSWVRQAPGRGLEWVSTISGSGGRTYYVDSVKGRFTISRDNSKNTLYLQMNSLRAEDTAVYYCAKMFSYYYYYMDVWGKGTTVTVSS
VL: EIVMTQSPATLSLSPGKRATLSCRASQSVSTTYLSWYLQKPGQAPRLLIYGASTRATGIPARFSGSGSGTDFTLTISSLQPEDFAVYYCQQDYNLPPYTFGQGTKLEIK
notes: VH and VL only
binding result (cynomolgus monkey CD3): no binding (tested: FOI ≥10 = positive; 25 nM)
